Experimental data reported in publication PMC4277623, “Synthesis and Preliminary Evaluation of a New ^99mTc Labeled Substance P Analogue as a Potential Tumor Imaging Agent” (Iranian Journal of Pharmaceutical Research : IJPR, 2015).
Where two headings read alike, the source gives them in different places.

Assays:
[1] = Protein binding in human serum; assay type: in vitro ADME; settings: fresh human serum, 2 h incubation; ethanol precipitation, centrifugation; γ-counter
Experimental: For protein binding estimation, freshly labeled peptide solution was filtered through a […] and a 100 μL aliquot of filtrate was incubated in 1ml fresh human serum for 2 h. After ethanol treatment and centrifugation (4000 g, 5 min, 4 °C), all the supernatant was completely removed. A slight wash with 1x phosphate-buffered saline (PBS) was done on the surface of the sediment and the eluate was added to the removed supernatant. The total activity of the supernatant and the activity of the sediment were measured by well-type NaI γ-counter to determine the percentage of radio peptide bound or transferred to albumin and other serum proteins.

[2] = Log P, octanol/PBS partition; assay type: physicochemical; settings: shake-flask octanol/PBS, vortexed 10 min, γ-counter, three aliquots per layer averaged
Experimental: In a 2 mL microtube, 0.5 mL of the^99mTc labeled peptides in PBS was mixed with 0.5 mL of octanol. The tube was vigorously vortexed over a period of 10 min and centrifuged at 4000g for 5 min. Three aliquots of 100 μL were sampled from eachlayer and counted in theγ counter. The averaged activities from the aqueous and the octanol layers were used to calculate the log p-values. The octanol-to-water partition coefficient (Po/w) of the radiolabeled peptides was calculated by dividing the counts of the octanol phase by that of the aqueous phase.

[3] = Biodistribution in tumor bearing nude mice; assay type: in vivo; settings: male, nude, mouse, iv, total radioactivity, mean ± SEM; for tissue uptake at 1 h: 1 h p.i.; for tissue uptake at 4 h: 4 h p.i.
Experimental: (§1) Male albino mice in a weight range of18-24 g were used for normal mice treatments and malenude mice (6 to 8 weeks old) were used for in-vivo tumor treatments. The mice were housed at controlled room temperature (25 °C) in a 12 h light/12 h dark schedule. They were kept in standard cages with free access to food and water except during the experiments. The nude mice were grown and kept in isolated sterile condition. All animal experiments were carried out in compliance with our institutional ethical guidelines.
(§2) U373MG cells were grown and harvested by trypsinization. Cells were washed twice with fresh RPMI medium containing 20% FBS and centrifuged for 5 min at 200 g. Pellets were resuspended in RPMI medium containing 20% FBS. A 100 µL suspension of 4 × 10^6 cells was subcutaneously injected on the right flank of each nude mouse. After four weeks, the size of inducted tumors was suitable for biodistribution study and mice were injected via the tail vein with radiolabeled peptide in two groups in the presence and absence of block. They sacrificed at 1 h and 4 h time points to assay the biodistribution. They were dissected and % ID/g of tissues was measured as described above. Finally, tumor-to-organ ratios were calculated.

[4] = tested on: U373MG tumor; assay: Biodistribution in tumor bearing nude mice; assay type: in vivo
Experimental: as §1, §2

[5] = U373MG tumor, U373MG tumor, blocked tumor bearing nude mice (excess SP), P< 0.01 vs nonblocked, read-out: %ID/g Tumor
[6] = blood, Blood, blocked tumor bearing nude mice (excess SP), read-out: %ID/g Blood
[7] = bone, Bone, blocked tumor bearing nude mice (excess SP), read-out: %ID/g Bone
[8] = bone, Bone, tumor bearing nude mice, i.v., n=3, read-out: %ID/g Bone
[9] = heart, Heart, blocked tumor bearing nude mice (excess SP), read-out: %ID/g Heart
[10] = heart, Heart, tumor bearing nude mice, i.v., n=3, read-out: %ID/g Heart
[11] = kidneys, Kidneys, blocked tumor bearing nude mice (excess SP), read-out: %ID/g Kidneys
[12] = kidneys, Kidneys, tumor bearing nude mice, i.v., n=3, read-out: %ID/g Kidneys
[13] = muscle, Muscle, blocked tumor bearing nude mice (excess SP), read-out: %ID/g Muscle
[14] = muscle, Muscle, tumor bearing nude mice, i.v., n=3, read-out: %ID/g Muscle
[15] = salivary gland, Salivary G., blocked tumor bearing nude mice (excess SP), read-out: %ID/g Salivary G.
[16] = salivary gland, Salivary G., tumor bearing nude mice, i.v., n=3, read-out: %ID/g Salivary G.
[17] = spleen, Spleen, blocked tumor bearing nude mice (excess SP), read-out: %ID/g Spleen
[18] = spleen, Spleen, tumor bearing nude mice, i.v., n=3, read-out: %ID/g Spleen
[19] = stomach, Stomach, blocked tumor bearing nude mice (excess SP), read-out: %ID/g Stomach
[20] = stomach, Stomach, tumor bearing nude mice, i.v., n=3, read-out: %ID/g Stomach

CC(C)C[C@H](NC(=O)CNC(=O)[C@H](Cc1ccc(O)cc1)NC(=O)[C@H](Cc1ccccc1)NC(=O)[C@H](CCC(N)=O)NC(=O)[C@H](CCC(N)=O)NC(=O)[C@@H]1CCCN1C(=O)[C@H](CCCCN)NC(=O)[C@@H]1CCCN1C(=O)[C@H](CCCNC(=N)N)NC(=O)c1ccc(NN)nc1)C(=O)N[C@@H](CC[S+](C)[O-])C(N)=O (stereo partly drawn) [^99mTc-HYNIC-Tyr^8-Met(O)^11-SP, metal not drawn]
fraction unbound at 2 h [1]: 0.56 | log P [2]: -3.75 | tissue uptake at 1 h [3, 5]: 1.36 ± 0.19 %ID/g | tissue uptake at 4 h [3, 5]: 0.54 ± 0.08 %ID/g | tissue uptake at 4 h ([3]; U373MG tumor, U373MG tumor, tumor bearing nude mice, i.v., n=3, read-out: %ID/g Tumor): 1.26 ± 0.11 %ID/g | tissue uptake at 1 h [3, 6]: 1.7 ± 0.14 %ID/g | tissue uptake at 4 h [3, 6]: 0.52 ± 0.15 %ID/g | tissue uptake at 4 h ([3]; blood, Blood, tumor bearing nude mice, i.v., n=3, read-out: %ID/g Blood): 0.41 ± 0.12 %ID/g | tissue uptake at 1 h [3, 7]: 0.66 ± 0.07 %ID/g | tissue uptake at 4 h [3, 7]: 0.31 ± 0.03 %ID/g | tissue uptake at 1 h [3, 8]: 0.52 ± 0.06 %ID/g | tissue uptake at 4 h [3, 8]: 0.27 ± 0.03 %ID/g | tissue uptake at 1 h [3, 9]: 0.98 ± 0.09 %ID/g | tissue uptake at 4 h [3, 9]: 0.23 ± 0.02 %ID/g | tissue uptake at 1 h [3, 10]: 0.78 ± 0.11 %ID/g | tissue uptake at 4 h [3, 10]: 0.25 ± 0.02 %ID/g | tissue uptake at 1 h [3, 11]: 20.2 ± 0.61 %ID/g | tissue uptake at 4 h [3, 11]: 13.1 ± 0.76 %ID/g | tissue uptake at 1 h [3, 12]: 19.3 ± 0.65 %ID/g | tissue uptake at 4 h [3, 12]: 12.8 ± 0.52 %ID/g | tissue uptake at 1 h [3, 13]: 0.73 ± 0.09 %ID/g | tissue uptake at 4 h [3, 13]: 0.09 ± 0.01 %ID/g | tissue uptake at 1 h [3, 14]: 0.51 ± 0.06 %ID/g | tissue uptake at 4 h [3, 14]: 0.08 ± 0.01 %ID/g | tissue uptake at 1 h [3, 15]: 0.95 ± 0.06 %ID/g | tissue uptake at 4 h [3, 15]: 0.41 ± 0.03 %ID/g | tissue uptake at 1 h [3, 16]: 1 ± 0.09 %ID/g | tissue uptake at 4 h [3, 16]: 0.33 ± 0.04 %ID/g | tissue uptake at 1 h [3, 17]: 0.34 ± 0.04 %ID/g | tissue uptake at 4 h [3, 17]: 0.26 ± 0.03 %ID/g | tissue uptake at 1 h [3, 18]: 0.46 ± 0.07 %ID/g | tissue uptake at 4 h [3, 18]: 0.32 ± 0.03 %ID/g | tissue uptake at 1 h [3, 19]: 0.63 ± 0.13 %ID/g | tissue uptake at 4 h [3, 19]: 0.26 ± 0.05 %ID/g | tissue uptake at 1 h [3, 20]: 0.81 ± 0.12 %ID/g | tissue uptake at 4 h [3, 20]: 0.32 ± 0.03 %ID/g | D% Blood ([4]; Blood, decreased percent of %ID/g between 1 h and 4 h, nude mice): 69% | %ID/g Blood ([4]; Blood, tumor bearing nude mice, 1 h p.i., i.v., mean ± SEM, n=3): 1.32±0.16 %ID/g | D% Bone ([4]; Bone, decreased percent of %ID/g between 1 h and 4 h, nude mice): 48% | D% Heart ([4]; Heart, decreased percent of %ID/g between 1 h and 4 h, nude mice): 68% | D% Kidneys ([4]; Kidneys, decreased percent of %ID/g between 1 h and 4 h, nude mice): 34% | %ID/g L. intestine ([4]; L. intestine, blocked tumor bearing nude mice (excess SP), 1 h p.i., mean ± SEM, P< 0.01 vs nonblocked): 0.73±0.14 %ID/g | %ID/g L. intestine ([4]; L. intestine, blocked tumor bearing nude mice (excess SP), 4 h p.i., mean ± SEM, P< 0.01 vs nonblocked): 0.70±0.16 %ID/g | D% L. intestine ([4]; L. intestine, decreased percent of %ID/g between 1 h and 4 h, nude mice): 3% | %ID/g L. intestine ([4]; L. intestine, tumor bearing nude mice, 1 h p.i., i.v., mean ± SEM, n=3): 1.89±0.15 %ID/g | %ID/g L. intestine ([4]; L. intestine, tumor bearing nude mice, 4 h p.i., i.v., mean ± SEM, n=3): 1.83±0.06 %ID/g | %ID/g Liver ([4]; Liver, blocked tumor bearing nude mice (excess SP), 1 h p.i., mean ± SEM): 0.96±0.10 %ID/g | %ID/g Liver ([4]; Liver, blocked tumor bearing nude mice (excess SP), 4 h p.i., mean ± SEM): 0.50±0.08 %ID/g | D% Liver ([4]; Liver, decreased percent of %ID/g between 1 h and 4 h, nude mice): 37% | %ID/g Liver ([4]; Liver, tumor bearing nude mice, 1 h p.i., i.v., mean ± SEM, n=3): 0.86±0.09 %ID/g | %ID/g Liver ([4]; Liver, tumor bearing nude mice, 4 h p.i., i.v., mean ± SEM, n=3): 0.54±0.07 %ID/g | %ID/g Lung ([4]; Lung, blocked tumor bearing nude mice (excess SP), 1 h p.i., mean ± SEM): 1.53±0.25 %ID/g | %ID/g Lung ([4]; Lung, blocked tumor bearing nude mice (excess SP), 4 h p.i., mean ± SEM): 0.67±0.09 %ID/g | D% Lung ([4]; Lung, decreased percent of %ID/g between 1 h and 4 h, nude mice): 48% | %ID/g Lung ([4]; Lung, tumor bearing nude mice, 1 h p.i., i.v., mean ± SEM, n=3): 1.47±0.15 %ID/g | %ID/g Lung ([4]; Lung, tumor bearing nude mice, 4 h p.i., i.v., mean ± SEM, n=3): 0.76±0.12 %ID/g | D% Muscle ([4]; Muscle, decreased percent of %ID/g between 1 h and 4 h, nude mice): 84% | %ID/g S. intestine ([4]; S. intestine, blocked tumor bearing nude mice (excess SP), 1 h p.i., mean ± SEM, P< 0.01 vs nonblocked): 0.83±0.12 %ID/g | %ID/g S. intestine ([4]; S. intestine, blocked tumor bearing nude mice (excess SP), 4 h p.i., mean ± SEM, P< 0.05 vs nonblocked): 0.36±0.09 %ID/g | D% S. intestine ([4]; S. intestine, decreased percent of %ID/g between 1 h and 4 h, nude mice): 70% | %ID/g S. intestine ([4]; S. intestine, tumor bearing nude mice, 1 h p.i., i.v., mean ± SEM, n=3): 2.57±0.34 %ID/g | %ID/g S. intestine ([4]; S. intestine, tumor bearing nude mice, 4 h p.i., i.v., mean ± SEM, n=3): 0.78±0.07 %ID/g | D% Salivary G. ([4]; Salivary G., decreased percent of %ID/g between 1 h and 4 h, nude mice): 66% | D% Stomach ([4]; Stomach, decreased percent of %ID/g between 1 h and 4 h, nude mice): 61% | D% Tumor ([4]; U373MG tumor, decreased percent of %ID/g between 1 h and 4 h, nude mice): 62% | %ID/g Tumor ([4]; U373MG tumor, tumor bearing nude mice, 1 h p.i., i.v., mean ± SEM, n=3): 3.36±0.26 %ID/g
